Changes are numbered by the printed parent chain.
Assays:
[1] = target: T1, integrin αVβ3 (human), P06756; assay: SPR (BIAcore)
T1 chain 1: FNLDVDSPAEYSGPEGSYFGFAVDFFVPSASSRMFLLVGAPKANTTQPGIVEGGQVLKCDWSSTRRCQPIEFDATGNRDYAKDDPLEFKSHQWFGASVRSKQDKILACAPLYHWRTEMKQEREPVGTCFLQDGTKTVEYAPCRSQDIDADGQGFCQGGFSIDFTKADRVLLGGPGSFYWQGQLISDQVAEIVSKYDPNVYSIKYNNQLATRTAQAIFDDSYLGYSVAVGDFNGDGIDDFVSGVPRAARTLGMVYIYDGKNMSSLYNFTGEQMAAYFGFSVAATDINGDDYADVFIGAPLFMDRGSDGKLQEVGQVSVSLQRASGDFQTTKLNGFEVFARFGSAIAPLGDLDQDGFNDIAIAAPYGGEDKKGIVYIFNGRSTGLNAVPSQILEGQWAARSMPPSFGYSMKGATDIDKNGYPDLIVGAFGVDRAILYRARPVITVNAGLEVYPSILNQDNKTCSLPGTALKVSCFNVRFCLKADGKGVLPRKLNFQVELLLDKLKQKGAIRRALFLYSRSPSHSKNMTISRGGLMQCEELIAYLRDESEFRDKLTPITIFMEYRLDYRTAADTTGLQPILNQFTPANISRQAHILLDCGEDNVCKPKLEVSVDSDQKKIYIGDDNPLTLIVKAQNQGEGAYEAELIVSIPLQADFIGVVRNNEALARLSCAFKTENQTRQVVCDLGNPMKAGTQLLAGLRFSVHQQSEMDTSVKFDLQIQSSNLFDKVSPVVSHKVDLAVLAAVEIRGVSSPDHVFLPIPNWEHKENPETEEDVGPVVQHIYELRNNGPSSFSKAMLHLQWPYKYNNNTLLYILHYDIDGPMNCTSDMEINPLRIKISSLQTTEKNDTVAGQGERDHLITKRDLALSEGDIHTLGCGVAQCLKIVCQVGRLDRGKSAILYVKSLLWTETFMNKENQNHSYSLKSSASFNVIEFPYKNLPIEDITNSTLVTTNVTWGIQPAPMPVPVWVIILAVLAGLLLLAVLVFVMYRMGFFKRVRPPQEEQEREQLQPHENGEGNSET
T1 chain 2: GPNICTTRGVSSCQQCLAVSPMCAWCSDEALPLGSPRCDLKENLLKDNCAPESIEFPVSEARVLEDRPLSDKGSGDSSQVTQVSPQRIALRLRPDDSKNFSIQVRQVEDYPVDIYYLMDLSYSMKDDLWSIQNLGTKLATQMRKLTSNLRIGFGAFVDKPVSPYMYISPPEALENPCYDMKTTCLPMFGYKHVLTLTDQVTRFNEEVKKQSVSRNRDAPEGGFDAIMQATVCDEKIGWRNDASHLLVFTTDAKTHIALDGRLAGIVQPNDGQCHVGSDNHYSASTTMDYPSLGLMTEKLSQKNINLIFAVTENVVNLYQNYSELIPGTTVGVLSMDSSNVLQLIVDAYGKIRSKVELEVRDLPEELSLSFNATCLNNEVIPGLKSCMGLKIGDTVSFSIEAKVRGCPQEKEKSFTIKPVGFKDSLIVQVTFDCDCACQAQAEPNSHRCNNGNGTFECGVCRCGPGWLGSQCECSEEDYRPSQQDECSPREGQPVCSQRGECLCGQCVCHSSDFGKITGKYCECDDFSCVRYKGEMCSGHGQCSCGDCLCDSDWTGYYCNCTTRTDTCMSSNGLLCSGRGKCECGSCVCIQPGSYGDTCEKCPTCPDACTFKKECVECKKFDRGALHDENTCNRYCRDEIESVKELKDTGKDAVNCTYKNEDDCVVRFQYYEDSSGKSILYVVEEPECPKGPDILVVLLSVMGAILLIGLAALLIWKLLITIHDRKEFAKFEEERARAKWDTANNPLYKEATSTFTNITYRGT

[2] = target: T1, integrin αVβ3 (human), P06756; assay: SPR (BIAcore), ratio of Kd
[3] = target: T1, integrin αVβ3 (human), P06756; assay: SPR (BIAcore), Fab over immobilized αVβ3
integrin αVβ3 [4] = target: T2, integrin αVβ3 (human, UniProt P06756 31-1048; P05106 27-788); assay: SPR (BIAcore)
T2 construct: mature; biotinylated in capture lift and capture ELISA; also on M21 melanoma cells in some assays; also called vitronectin receptor; αVβ3 receptor

integrin αVβ3 [5] = target: T2, integrin αVβ3; assay: inhibition of binding of 0.1 µg/ml biotinylated fibrinogen to immobilized αVβ3, 3 h at 37 °C, detection with NeutrAvidin alkaline phosphatase
integrin αVβ3 [6] = target: T2, integrin αVβ3; assay: ELISA screen of the position 49 library (target printed αvβ5 here, αvβ3 in paragraph 179)
integrin αVβ5 = target: T3, integrin αVβ5 (human, UniProt P06756 31-1048; P18084 24-799); assay: ELISA on coated integrin, detection with goat anti-human IgG alkaline phosphatase
T3 construct: mature
T3 sequence (P18084 24-799, chain 2 of 2, one chain of several): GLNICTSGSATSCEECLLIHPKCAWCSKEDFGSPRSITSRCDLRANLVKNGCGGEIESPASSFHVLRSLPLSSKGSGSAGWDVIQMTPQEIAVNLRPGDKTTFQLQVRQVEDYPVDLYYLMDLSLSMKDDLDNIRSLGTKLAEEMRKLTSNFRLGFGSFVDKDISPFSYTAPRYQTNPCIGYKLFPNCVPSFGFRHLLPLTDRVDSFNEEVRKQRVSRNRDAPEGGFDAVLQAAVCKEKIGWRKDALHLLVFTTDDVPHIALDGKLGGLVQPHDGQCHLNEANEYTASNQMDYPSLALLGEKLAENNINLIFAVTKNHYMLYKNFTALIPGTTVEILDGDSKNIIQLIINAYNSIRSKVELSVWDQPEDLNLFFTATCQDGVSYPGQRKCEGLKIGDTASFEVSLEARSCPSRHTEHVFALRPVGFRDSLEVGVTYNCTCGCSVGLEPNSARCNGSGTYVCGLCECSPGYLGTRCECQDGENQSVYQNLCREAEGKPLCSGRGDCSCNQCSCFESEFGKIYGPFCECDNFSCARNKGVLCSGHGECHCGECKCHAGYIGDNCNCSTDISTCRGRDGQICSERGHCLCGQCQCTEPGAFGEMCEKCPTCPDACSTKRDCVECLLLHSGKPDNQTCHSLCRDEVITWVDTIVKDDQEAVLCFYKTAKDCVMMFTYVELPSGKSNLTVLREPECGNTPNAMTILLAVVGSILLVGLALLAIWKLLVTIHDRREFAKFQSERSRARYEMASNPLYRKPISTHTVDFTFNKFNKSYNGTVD
Protocol: Specifically, binding specificity was assessed by measuring binding to αIIbβ₃, the major integrin expressed on platelets, and to αVβ₅ an integrin found prevalent on endothelial cells and connective tissue cell types.
Antibody binding activity was assessed by ELISA using a goat anti-human IgG-alkaline phosphatase conjugate.

B1: LM609 grafted antibody combinatorial clone V357D (Fab)
chain 1: QVQLVESGGGVVQPGRSLRLSCAASGFTFSSYDMSWVRQAPGKGLEWVAKVSSGGGSTYYLDTVQGRFTISRDNSKNTLYLQMNSLRAEDTAVYYCARHNYGSFADWGQGTTVTVSS
chain 2: EIVLTQSPATLSLSPGERATLSCQASQSISNFLHWYQQRPGQAPRLLIRYRSQSISGIPARFSGSGSGTDFTLTISSLEPEDFAVYYCQQSGSWPHTFGGGTKVEIK
modifications: not checked
fold slower dissociation rate [1]: > 10 fold | fold enhanced affinity over parent LM609 grafted antibody [2]: > 50 fold | Kd [3]: 0.5 nM | koff [3]: 0.00014 s⁻¹ | kon [3]: 279000 M⁻¹ s⁻¹

B2: LM609 grafted antibody combinatorial clone C59 (Fab, V domains shown)
VH: B1 chain 1 with L61P
VL: B1 chain 2
notes: Fab
fold slower dissociation rate (integrin αVβ3 [4]): > 10 fold | IC50 (read off the curve) (integrin αVβ3 [5]): ~0.06 µg/mL

B3: LM609 grafted antibody clone with Met at position 49 of the light chain (Fab, V domains shown)
VH: B1 chain 1 with D106Y
VL: B1 chain 2 with F32H, R49M
notes: From the library of 19 non-donor residues at light chain position 49
binding result (integrin αVβ3 [6]): binds

B4: Vitaxin (antibody, V domains shown)
VH: B1 chain 1 with D106Y
VL: B1 chain 2 with F32H, R49K
notes: also called huLM609M13 1135-4; grafted LM609
binding result (integrin αVβ5): no binding (tested: about 2000 ng/ml)

— patent US20030166872A1 (APPLIED MOLECULAR EVOLUTION, published 2003)
